Experimental data: the supplement of paper PMC10724198
± gives the standard deviation of the averaged measurements.

Test system: Saccharomyces cerevisiae
Assay: protein stability index of tFT-peptide fusion (C-terminal peptide) (PSI (0-1 scale)); higher = more stable (slower turnover)
Details: temperature: 30 C
Description: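 MPS profiling in S. cerevisiae of the yeast C-terminome library: the last 12 aa of each annotated ORF are fused to the C-terminus of a sfGFP-mCherry timer, after a GGGS linker. Cells are FACS-sorted into 8 mCherry/sfGFP bins and deep-sequenced. PSI runs from 0 (unstable) to 1 (stable); wild type and das1Δ backgrounds, two technical replicates each.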

[1] = genetic background: das1 deletion

Sequence | protein stability index [1] | protein stability index (genetic background: wild type)
IFKSLIAKKVQS [BPL1 C-terminal 12 aa] | 0.69 ± 0.001 | 0.433 ± 0.033
ELANILESDITL [CIN1 C-terminal 12 aa] | 0.70881 ± 0.00043 | 0.712 ± 0.022
RNLLSTYHPMLM [YLR124W C-terminal 12 aa] | 0.679 ± 0.0082 | 0.665 ± 0.0023
AYFIDVVGCSGL [LIH1 C-terminal 12 aa] | 0.706 ± 0.00073 | 0.705 ± 0.025
ADARDKFVDLYN [ADD66 C-terminal 12 aa] | 0.696 ± 0.027 | 0.708 ± 0.1
KFSSTSRYMQYN [RPT1 C-terminal 12 aa] | 0.705 ± 0.016 | 0.642 ± 0.017
LPIWDPMGALAK [LAP3 C-terminal 12 aa] | 0.703 ± 0.0072 | 0.739 ± 0.06
EYDDDSGNQGVW [GRE1 C-terminal 12 aa] | 0.6914 ± 0.00077 | 0.739 ± 0.049
SNSNQHFGNVTF [IME2 C-terminal 12 aa] | 0.713 ± 0.0014 | 0.6829 ± 0.0059
NDDDEDDDDFFD [SDD2 C-terminal 12 aa] | 0.723 ± 0.015 | 0.6947 ± 0.0056
LSDLHIKEAKID [OGG1 C-terminal 12 aa] | 0.7101 ± 0.0056 | 0.568 ± 0.021
ECDGITVPEKLT [MSC6 C-terminal 12 aa] | 0.682 ± 0.012 | 0.708 ± 0.011
IEQEAKQRERNQ [COA6 C-terminal 12 aa] | 0.6993 ± 0.0011 | 0.701 ± 0.02
PCRYLELRKFGR [TPN1 C-terminal 12 aa] | 0.7005 ± 0.0046 | 0.74 ± 0.045
EKVIDGSIEHSS [YNR061C C-terminal 12 aa] | 0.6642 ± 0.0044 | 0.703 ± 0.017
SVFCRNYPSFLL [YMR086C-A C-terminal 12 aa] | 0.697 ± 0.011 | 0.7 ± 0.035
ADRASVEIIDAN [PFA3 C-terminal 12 aa] | 0.705 ± 0.021 | 0.7046 ± 0.0057
EKEFTGNSQSEK [NMA111 C-terminal 12 aa] | 0.6859 ± 0.006 | 0.742 ± 0.039
MKSKKIDIKGQK [THP3 C-terminal 12 aa] | 0.705 ± 0.03 | 0.665 ± 0.018
KPFYYKIYRFWC [SAM3 C-terminal 12 aa] | 0.735 ± 0.024 | 0.3886 ± 0.0019
AIQEYNARYPLN [ABF2 C-terminal 12 aa] | 0.708 ± 0.0085 | 0.707 ± 0.021

Sequence | protein stability index [1] | protein stability index (genetic background: wild type)
TVLKAAKKEGLN [MGR3 C-terminal 12 aa] | 0.672 ± 0.015 | 0.671 ± 0.044
LKRVVTKAMSSR [SSB1 C-terminal 12 aa] | 0.714 ± 0.012 | 0.6864 ± 0.0039
AFRSLQKSKKKK [PKH3 C-terminal 12 aa] | 0.717 ± 0.042 | 0.793 ± 0.034
KILDEINLDRIK [HEM3 C-terminal 12 aa] | 0.689 ± 0.0094 | 0.681 ± 0.052
LPKPAGWQNHIG [KTR1 C-terminal 12 aa] | 0.7014 ± 0.0053 | 0.68 ± 0.009
VPDIPPPPALVA [NUP42 C-terminal 12 aa] | 0.632 ± 0.034 | 0.6989 ± 0.0048
LEEETLPPSQKK [PYC2 C-terminal 12 aa] | 0.694 ± 0.013 | 0.647 ± 0.02
SALNKIKADEKK [ACO1 C-terminal 12 aa] | 0.689 ± 0.024 | 0.684 ± 0.024
RHQGQNIYRSGV [MCM5 C-terminal 12 aa] | 0.682 ± 0.03 | 0.674 ± 0.022
KNIPEKFKNGIF [SSP120 C-terminal 12 aa] | 0.729 ± 0.036 | 0.647 ± 0.0098
LEFVRGGSRQFT [TIM44 C-terminal 12 aa] | 0.689 ± 0.0081 | 0.713 ± 0.02
FQRRSISGLGDL [INP1 C-terminal 12 aa] | 0.711 ± 0.0092 | 0.676 ± 0.031
PKINPLHARKPT [RAD52 C-terminal 12 aa] | 0.7086 ± 0.0022 | 0.7036 ± 0.0028
EGPRGETIVERF [YJL047C-A C-terminal 12 aa] | 0.698 ± 0.008 | 0.6955 ± 0.0027
ALSEYMENTSGL [RSC9 C-terminal 12 aa] | 0.696 ± 0.059 | 0.728 ± 0.014
KIVSGLVRTNSS [YIL060W C-terminal 12 aa] | 0.703 ± 0.019 | 0.717 ± 0.024
LAPLQFSGIVRS [YDR274C C-terminal 12 aa] | 0.6773 ± 0.0022 | 0.682 ± 0.045
GGSRGGFRGGRR [GAR1 C-terminal 12 aa] | 0.685 ± 0.041 | 0.707 ± 0.041
KKARKMPTWVKR [MRPS9 C-terminal 12 aa] | 0.693 ± 0.032 | 0.65752 ± 7.3e-05
EINSDFIENFEE [MSH4 C-terminal 12 aa] | 0.701 ± 0.017 | 0.699 ± 0.046
TAPLIQRKNKKN [RPN8 C-terminal 12 aa] | 0.741 ± 0.037 | 0.355 ± 0.022

Sequence | protein stability index [1] | protein stability index (genetic background: wild type)
NQFSQPPSNVEF [SCD6 C-terminal 12 aa] | 0.684 ± 0.025 | 0.697 ± 0.019
IGKQKCFIIEMR [MSY1 C-terminal 12 aa] | 0.6688 ± 0.00094 | 0.679 ± 0.0098
DACIKRWNVVLE [AIP1 C-terminal 12 aa] | 0.684 ± 0.023 | 0.71 ± 0.049
ERLIQQGYLQKI [PSF1 C-terminal 12 aa] | 0.698 ± 0.024 | 0.683 ± 0.035
LVKHTYKRSSSS [VBA1 C-terminal 12 aa] | 0.705 ± 0.029 | 0.656 ± 0.019
TISPYIRVCVST [YPR099C C-terminal 12 aa] | 0.3891 ± 0.0037 | 0.424 ± 0.018
AGIRKRDWDSTQ [RFM1 C-terminal 12 aa] | 0.717 ± 0.02 | 0.691 ± 0.055
FFMIMVMVINFI [FIG2 C-terminal 12 aa] | 0.195 ± 0.03 | 0.199 ± 0.0042
AKGKGKSDEKIL [YIL086C C-terminal 12 aa] | 0.7026 ± 0.0025 | 0.73 ± 0.12
EPMESLRSTTKY [PTR2 C-terminal 12 aa] | 0.734 ± 0.022 | 0.697 ± 0.01
LSFFGILKYCFL [TSC3 C-terminal 12 aa] | 0.6491 ± 0.0031 | 0.618 ± 0.027
LQVSQEFTTKTQ [NUP82 C-terminal 12 aa] | 0.676 ± 0.034 | 0.709 ± 0.048
EGVGCRYPVVLI [YDR467C C-terminal 12 aa] | 0.7038 ± 0.0063 | 0.666 ± 0.019
GKTTYSEVWAGY [VVS1 C-terminal 12 aa] | 0.746 ± 0.04 | 0.741 ± 0.013
RSHKCYPHDVRF [NAT3 C-terminal 12 aa] | 0.7614 ± 0.0011 | 0.662 ± 0.024
LAWNPNLSAKRF [PRP46 C-terminal 12 aa] | 0.71 ± 0.031 | 0.705 ± 0.021
KRAENNAQKKTN [ERG25 C-terminal 12 aa] | 0.689 ± 0.019 | 0.495 ± 0.0083
GLSLSFSKKLDL [DSN1 C-terminal 12 aa] | 0.685 ± 0.023 | 0.671 ± 0.026
FQTITGEEKEKK [ECM16 C-terminal 12 aa] | 0.708 ± 0.027 | 0.728 ± 0.023
KPGLTVYSIELL [SMP3 C-terminal 12 aa] | 0.6898 ± 0.0048 | 0.692 ± 0.011
SSLSFLSSFVDI [VAM10 C-terminal 12 aa] | 0.708 ± 0.025 | 0.702 ± 0.048

Sequence | protein stability index [1] | protein stability index (genetic background: wild type)
EFMKTNTGSKKV [CCR4 C-terminal 12 aa] | 0.703 ± 0.027 | 0.677 ± 0.03
TDIENRNFRYIY [THI73 C-terminal 12 aa] | 0.6944 ± 0.0043 | 0.702 ± 0.022
QEISYKFSKTYS [IME1 C-terminal 12 aa] | 0.676 ± 0.021 | 0.664 ± 0.038
VSIYKPYTEESE [WTM1 C-terminal 12 aa] | 0.662 ± 0.0069 | 0.663 ± 0.027
KPGGSKKRKTKA [RFC1 C-terminal 12 aa] | 0.729 ± 0.011 | 0.747 ± 0.15
FFTKLFKKKSSR [MSC3 C-terminal 12 aa] | 0.705 ± 0.02 | 0.6832 ± 0.0021
LPNTISSETFLK [SCEI C-terminal 12 aa] | 0.661 ± 0.0076 | 0.702 ± 0.018
IKKEVSRRLNGR [CUR1 C-terminal 12 aa] | 0.647 ± 0.016 | 0.692 ± 0.03
GFLGIRWGPRKD [TIM21 C-terminal 12 aa] | 0.7247 ± 0.00099 | 0.6861 ± 0.006
VPYAKILDQCIL [YGL230C C-terminal 12 aa] | 0.693 ± 0.027 | 0.721 ± 0.021
QSKNIEIFSQIK [YGR067C C-terminal 12 aa] | 0.71 ± 0.031 | 0.695 ± 0.018
QVKLSILKSLGF [UBC7 C-terminal 12 aa] | 0.702 ± 0.02 | 0.657 ± 0.0096
IDDKSDQEESLQ [MAF1 C-terminal 12 aa] | 0.706 ± 0.0079 | 0.664 ± 0.067
LMVPDPWYREGN [FAB1 C-terminal 12 aa] | 0.726 ± 0.018 | 0.721 ± 0.031
NLLRFIVGVDVL [YDR426C C-terminal 12 aa] | 0.639 ± 0.0092 | 0.638 ± 0.0082
PLSASWCTSLVT [YHR173C C-terminal 12 aa] | 0.696 ± 0.0087 | 0.671 ± 0.0088
NSGSAATDSPFN [STS1 C-terminal 12 aa] | 0.727 ± 0.013 | 0.674 ± 0.034
NSDRLSPMEIYN [SPO14 C-terminal 12 aa] | 0.7118 ± 0.007 | 0.6799 ± 0.0022
TCISVFLEVHQV [YDL206W C-terminal 12 aa] | 0.479 ± 0.017 | 0.4633 ± 0.0046
